Values joined by “and” are separate entries in the source; they are usually repeats but may differ in a detail not shown here. Equal values may be shown once. Read-outs that look alike come from different tables or passages of the source.
Experiments:
[1] = target: human UDP-glucose dehydrogenase Q458Bpa (human) (UniProt O60701); assay: cross-linking
[2] = target: human UDP-glucose dehydrogenase Q458Bpa (human) (UniProt O60701); assay: SEC
[3] = target: human UDP-glucose dehydrogenase Q458Bpa (human) (UniProt O60701); assay: SEC; remark: listed apart in the source
[4] = target: human UDP-glucose dehydrogenase Y96Bpa (human) (UniProt O60701); assay: SEC
[5] = target: human UDP-glucose dehydrogenase T325D obligate dimeric mutant (human) (UniProt O60701); assay: SEC
[6] = target: the molecule itself; assay: SEC

human UDP-glucose dehydrogenase Q458Bpa (from UniProt O60701 1-494) (enzyme)
cross-linking efficiency (holoenzyme) [1]: > 60%
cross-linking efficiency (with UDP-xylose alone) [1]: 40%
total crosslinking efficiency (with NAD+ and UDP-glucose) [1]: 63%
stoichiometry N [2]: 6
stoichiometry N [3]: 6

human UDP-glucose dehydrogenase Y96Bpa (from UniProt O60701 1-494) (enzyme)
stoichiometry N [4]: 2

human UDP-glucose dehydrogenase T325D obligate dimeric mutant (from UniProt O60701 1-494) (enzyme)
stoichiometry N [5]: 2

B1: human UDP-glucose dehydrogenase, wild type (enzyme, UniProt O60701 1-494, looked up)
chain: MFEIKKICCIGAGYVGGPTCSVIAHMCPEIRVTVVDVNESRINAWNSPTLPIYEPGLKEVVESCRGKNLFFSTNIDDAIKEADLVFISVNTPTKTYGMGKGRAADLKYIEACARRIVQNSNGYKIVTEKSTVPVRAAESIRRIFDANTKPNLNLQVLSNPEFLAEGTAIKDLKNPDRVLIGGDETPEGQRAVQALCAVYEHWVPREKILTTNTWSSELSKLAANAFLAQRISSINSISALCEATGADVEEVATAIGMDQRIGNKFLKASVGFGGSCFQKDVLNLVYLCEALNLPEVARYWQQVIDMNDYQRRRFASRIIDSLFNTVTDKKIAILGFAFKKDTGDTRESSSIYISKYLMDEGAHLHIYDPKVPREQIVVDLSHPGVSEDDQVSRLVTISKDPYEACDGAHAVVICTEWDMFKELDYERIHKKMLKPAFIFDGRRVLDGLHNELQTIGFQIETIGKKVSSKRIPYAPSGEIPKFSLQDPPNKKPKV
stoichiometry N [6]: 6 and 2
